This note sets out measurements from paper PMC9838217, “Structure of SALL4 zinc finger domain reveals link between AT-rich DNA binding and Okihiro syndrome”.

Settings in all cases: protein: recombinant; tags: His6-GST removed with 3C protease; label: DY681
For one data set, the target named is T1, SALL4 ZFC4 I897S+V925S (Mus musculus, UniProt Q8BX22 870-940, I897S;V925S).
T1 sequence: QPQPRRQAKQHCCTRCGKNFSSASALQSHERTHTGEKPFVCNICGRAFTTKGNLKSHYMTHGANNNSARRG
Kind of data set: EMSA; apparent; text gives 5.0; poly(dI-dC); EMSA: 68.1 nM DY681-dsDNA, 20 mM HEPES pH 7.5, 150 mM K acetate, 5 mM Mg acetate, 10 ng/ul poly(dI-dC), 30 min on ice; 4% native PAGE, 0.5x TBE, 4 C.

The target in a further data set is T2, SALL4 ZFC4 V925S (Mus musculus, UniProt Q8BX22 870-940, V925S).
T2 sequence: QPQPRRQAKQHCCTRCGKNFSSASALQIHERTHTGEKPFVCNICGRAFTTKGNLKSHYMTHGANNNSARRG
Nature of the data set: EMSA; apparent; poly(dI-dC); EMSA: 68.1 nM DY681-dsDNA, 20 mM HEPES pH 7.5, 150 mM K acetate, 5 mM Mg acetate, 10 ng/ul poly(dI-dC), 30 min on ice; 4% native PAGE, 0.5x TBE, 4 C.

A further data set addresses T3, SALL4 ZFC4 I897S (Mus musculus, UniProt Q8BX22 870-940, I897S).
T3 sequence: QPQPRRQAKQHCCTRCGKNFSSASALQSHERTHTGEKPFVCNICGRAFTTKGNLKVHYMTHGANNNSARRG
Described as above.

For another data set, the target named is T4, SALL4 ZFC4 R900W (Mus musculus, UniProt Q8BX22 870-940, R900W).
T4 sequence: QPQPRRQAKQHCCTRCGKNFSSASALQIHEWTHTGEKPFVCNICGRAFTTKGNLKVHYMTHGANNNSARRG
Described as above.

B1: EMSA AT-rich probe (dsDNA)
DNA 1: AAAAAATATTAAAAA
DNA 2: TTTTTAATATTTTTT
Turning to B1, the Kd in the data set with SALL4 ZFC4 I897S+V925S turned out to be 5.08 µM; with SALL4 ZFC4 V925S it was 0.91 µM; with SALL4 ZFC4 I897S, 4.8 µM; with SALL4 ZFC4 R900W, 23 µM.
